The values below come from a protein production outcome set (Wang et al. 2014).
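Note: failed if final PepcDB status was selected cloned or expressed and not failed if soluble or beyond.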

A short description of the series: label from the status in PepcDB records.
For “MITNKKCKGCGAFLNDQINTIGYTPKINETKTNLCQRCFKLIHYNKLEKVSTNLNQSIKETINTLNFSNLQIFAVLDILDLEHTIIDELKEYQNKIIFLVNKIDLLPQRYNSELVNENVVKTLINHGFIDPKIIYVSTHSNTSLKKVMDYIKNATNKKQKSIFFGKSNVGKSSLINALLALNKIKTKLTISSYTNTTINLNKINIQEHQILDAPGVCFDENILNYVRDEDNKSIMISYGAKAINYQINPQQALMISGLVGIQYLKGQKTTFTLYVSSQLDIHRCKLENFIMNFNKRYLLAKFNYLNQDLEFVDHLITLNKDQKTNICIAGLGLLVINAHAEQICIRLPKSVGLKVAKYAII”, the protein production entry is reported as “failed”. As for “MITQNIESLNNIAKIQHAANTDYLTDLANRRAFFRSAESRIKEYINKKVPYCLAMIDVDFFKKVNDTYGHDSGDQVLKVIALYMRKHFGAGLTARLGGEEFAVLLHGLDADYLHNKLDDFRREIAVSSIPAGDTSISITLSLGVVFDSEDELSKQMNEADNALYAAKENGRNQIVVFGAELDDLEHHHHHH”, the protein production result is “not failed”. For the sequence “MITTIISSVVAFATTNIDDIFILLVLFSQVRTEVIRKEGRAVREKATRKKLYIVIGQYLGFSMIIFLSIIGSLSSFFIPVSWIGLLGFVPIYMGVKGLLSLRSYKSNEVIDNVTVSLFKVASITLANGADNISIYIPMFASQTLETNIVTLVIFFSMIAIWCFISYKLIKAPILAKVLEENCHIIVPIVLIGLGMFILFRSGTIGLFS”, the protein production entry was “failed”. To “MITTKLKLSVTNDYLLRINENRYVLIDTGYKEDWKLFLKRLKENGIKINEISYVILTHHHDDHVGFLNKLVSENKDIRVVMSDKTNELIKVGENDQTHGGGLINKRIEFLIRYKNMYVSKVLGVKKENNLKFPPYESRNNDIIFTGEVTLRELGIDLPGKIIETPGHTIDSISILFEDGDCFVGDAAANMLKLCGTKNCVIFIMDKKQYYESWDKMIKVGVKKVYPAHGGEFSVGRLKKNIWRNL” belongs “failed”; to “MITTTIFPGRYVQGAGAINILEEELSRFGERAFVVIDDFVDKNVLGENFFSSFTKVRVNKQIFGGECSDEEIERLSGLVEEETDVVVGIGGGKTLDTAKAVAYKLKKPVVIVPTIASTDAPCSALSVIYTPNGEFKRYLFLPRNPDVVLVDTEIVAKAPARFLVAGMGDALATWFEAESCKQKYAPNMTGRLGSMTAYALARLCYETLLEYGVLAKRSVEEKSVTPALEKIVEANTLLSGLGFESGGLAAAHAIHNGLTVLENTHKYLHGEKVAIGVLASLFLTDKPRKMIEEVYSFCEEVGLPTTLAEIGLDGVSDEDLMKVAEKACDKNETIHNEPQPVTSKDVFFALKAADRYGRMRKNLT”, “not failed”; to “MITVNFLILLLGLVFLVKGSDYFVKSASTIAKKLGVSEFVIGLTLVAIGTSIPELASSIAASIQQASGIVIGNVVGSNIANVGLIVGVAALLSPMKTEIDMLKRDGYIMLFSAVLFFVFAFNRELSMLEAGLFVLLYIAYVFFLFEEAEKYEGKLHFKEFITYFFKFKYINSAMQKLNGNRNRNSDSDRNSDSGNGNERLEGGFAKDIFTLVLSCAAIVIGAKYFVEESIFFAELLGIPDTVIGTTLVAVGTSLPELVVTVSAARQGYGSIALGNVIGSNITNIFLILGLSGLFYPLSVAEMSLFFTTPVMIAISLILLIFISTGWEIKRWEGVVLMMFYVAFLVVLFYI”, “failed”. To “MITVVGTGTGAPLSADAARALAGAGLVVGGRRHLAAAALPDGAERIVLGPLAPALDAIEAALEKQRRVVVLASGDPGFFGIVRALAERFGAERLDVRPGVSSVATAFARLGLPWDDAVVVSAHGRDLRTALNVCRSRPKVAVLTGPGAGPAELGAALAHGFGARVLVVASALGDPEHERVERVTPAEAAARDWGTAVSVVLCLDASRALAPVRTVAGPPAGPARWALEEGDFAHRDSMITKFEVRALALARLGPRLGDLVWDVGAGSGSVAVECARLGAAVTAVEKTLDGVERIHANARAHGVDVHVVHGAAPDALTALPDPDAVFIGGGGRELPALVTACARRARRTVVVAMAALDRVPAVREALTGAGFGCDGVLLQSSRLAPLPGDVTRLAATNPVFLLWGARPPARTEGALQ” belongs “failed”. For “MITVVKRNGRIEPLDITKIQKYTKDATDNLEGVSQSELEVDARLQFRDKITTEEIQQTLIKTAVDKIDIDTPNWSFVASRLFLYDLYHKVSGFTGYRHLKEYFENAEEKGRILKGFKEKFDLEFLNSQIKPERDFQFNYLGIKTLYDRYLLKDANNNPIELPQHMFMSIAMFLAQNEQEPNKIALEFYEVLSKFEAMCATPTLANARTTKHQLSSCYIGSTPDNIEGIFDSYKEMALLSKYGGGIGWDFSLVRSIGSYIDGHKNASAGTIPFLKIANDVAIAVDQLGTRKGAIAVYLEIWHIDVMEFIDLRKNSGDERRRAHDLFPALWVCDLFLKRVLEDAMWTLFDPYECKDLTELYGQDFEKRYLEYEKDPKIIKEYINAKDLWKKILMNYFEAGLPFLAFKDNANRCNPNAHAGIIRSSNLCTEIFQNTAPNHYYMQIEYTDGTIEFFEEKELVTTDSNITKCANKLTSTDILKGKPIYIATKVAKDGQTAVCNLASINLSKINTEEDIKRVVPIMVRLLDNVIDLNFYPNRKVKATNLQNRAIGLGVMGEAQMLAEHQIAWGSKEHLEKIDALMEQISYHAIDTSANLAKEKGVYKDFENSEWSKGIFPIDKANNEALKLTEKGLFNHACDWQGLREKVKANGMRNGYLMAIAPTSSISILVGTTQTIEPIYKKKWFEENLSGLIPVVVPNLNVETWNFYTSAYDIDAKDLIKAAAVRQKWIDQGQSLNVFLRIENASGKTLHDIYTLAWKLGLKSTYYLRSESPSIDEKSVLDRSVECFNCQ”, the protein production entry is “failed”. “MIVASSAAYRLHQGDALRLLCGIDSASVDAVITDPPYCSGAMRMADRFKPTKRKYINNGTKHVAPDFDCDFRDHRGFLAWSSQWLSECRRVTRPGGVLLVFTDWRMLPTLTDAVQSAGWAWQGIVVWDKTPACRPQLGRFRSQAEFIVWASCGLMNPKAHPVTPVGVFATGTAPREKRHQVGKPLALMEHLVKIVPPASTVLDPFAGSGTTGVAALRAGHRFIGMELSPWYCDVTKQRLADST”: the protein production entry was “failed”. As to “MIVEKVLIVDPIDGEFTGDVEIEEGKIVKVEKRECIPRGVLMPGFVDPHIHGVVGADTMNCDFSEMEEFLYSQGVTTFLATTVSTSLEKMKEILRKARDYILENPSTSLLGVHLEGPYISKEKKGAHSEKHIRPPSERELSEIDSPAKMLTFAPEIESSELLLRLVKRDIVLSAGHSIATFEEFMKFYKEGVKRITHFPNGLKPLHHREIGITGAGLLLDDVKLELICDGVHLSREMVKLVYKVKKANGIVLVTDSISAAGLKDGTTTLGDLVVKVKDGVPRLEDGTLAGSTLFFSQAVKNFRKFTGCSITELAKVSSYNSCVELGLDDRGRIAEGTRADLVLLDEDLNVVMTIKEGEVVFRSR”, the protein production result is reported as “not failed”. Regarding “MIVNEPVPDTFEDTPAKDRDPDWFKRAVFYEVLVRSFQDSNGDGIGDLKGLTAKLDYLQWLGVDCLWLPPFFKSPLRDGGYDVSDYTAVLPEFGDLADFVEFVDAAHQRGMRVIIDFVMNHTSDQHPWFQESRRNPDGPYGDYYVWADDDKQFQDARIIFVDTEASNWTYDPVRKQYYWHRFFSHQPDLNYENPVVQEEMISALKFWLDLGIDGFRLDAVPYLYQEEGTNCENLPRTHDFLKRVRKEIDAQYPDTVVLAEANQWPEDVVDYFGDYAAGGDECHMAFHFPVMPRIFMAVRRESRYPVSEILAKTPAIPSGCQWGIFLRNHDELTLEMVTDEERDYMYAEYAKDPRMRANIGIRRRLAPLLDNDRNQIELFTALLLSLPGSPILYYGDEIGMGDNIWLGDRDAVRTPMQWTPDRNAGFSSSDPGRLFLPTIMDPVHGYQVTNVEASMASPSSLLHWTRRMIEIRKQNVAFGLGTYTELPSSNPAVLAFLREHEDDLVLCVHNFSRFAQPTELDLSAFDGRHPVELFGGVRFPAVGDLPYLLTLGGHGFYWFRLRKDAA”, the protein production result is listed as “failed”. Take “MIVRSKPNLISVLISLKGSIAKRIALRSLLVTLLASAIVLIETLHPAYFSKVNATPFTLLGLSLSIFMSFRNNACYDRWYEARKALGTVVTEVRSMIRETQVLEDTRARSAILRDLCGFAHALKARLRREDELSAAETWLSQLPPASTSNLPDSLLRQIARQCSDQAQAGRLSEWRYLLLANQLAAITGAQSTCERIKATPLPFPYTLLLHRTSYMFCILLPFAMAEPLGWLTPIFTAIVSYTFFGLDAIGDELEDPFGHDENDLPLSAIVRNIEREILEALGATELPPALEPVDYVLS”: the protein production entry is “failed”. On to “MIVTLLGTGDSPGTPILNCHCRTCEDARRKGWERKRFSVMVQNNGKTVLIDTSPDLRRQLLDCGVEKVDAVIWTHCHFDHFGGFGEFYRVQNNVKVYSTPQIHEDIGHFMKFMSYKPVEVEAFENFTIAGMDFTLLPVNHPPVSAVGVKVEWKGYKVVVSGDTNVRIPEATLREMQNPDLLIVEALAPTGRFRKHMNAKEALELAKRLNAGKVVLTHLGHFFPPHHLAIKSYPVGEDYQSFSFGEGRLDEFFGDLEHHHHHH”, for which the protein production entry is listed as “failed”. For “MIWLQLVVVLAAIFVGARLGGIGLGVMGGLGLGVLTFVFHLQPTSPPIDVLLMIAAVVTAAGVLQAAGGLDYLVSVAERILRSNPDRITFLGPLVTYVFTLFAGTGHVAYSVLPVISEVARETGVRPERPMSISVIASQQAITASPISAATVALLGMLSTGAAGAAFHIELIDILKVCIPSTLLGVLAAAFVANRMGKDLEEDPEYQDRVARGLAAPTGRQALAAADGGEPVRAAAPVTAKIAVGIFLAAALAVVLFGSFPGMRPQWTTASGVTKLGMPHAIEMVMLSAAALMLMVCRVDVSKVATGSVFGAGVQAVIAIFGIAWMGDTFFAGNMEVLGGSIKGMVTAAPWLFAAALFALSVLLYSQAATVRALMPLGIALGIPAPALMAMFPAVNGYFFIPNYPTIVAAINFDRTGTTRIGRWVLNHSFMVPGLISTVVAIATGLVIVRFMF”, the protein production result is on record as “failed”. Turning to “MIWSLLKIYVLMLCTISTVYNTFLLIVCVVGCCVQMEEIVFETKDAVDWSYRSEGVVNLVLAYSGSSPTFLGKVMRIKKLRNTRNENRDRSGSCLTTQEKLIWGEIKDLVSCQNKEIVDYLFVKHVMKPLLGHKYVTPGICLPVEKEFLESVKKIVTSQRHSWRANTLSVDTNRSFALLMDDLTIFSHGQVEDHKPCLTVEIKPKCGFLSSSSFIAEENVIKKSISRFEMYQVLKLRENQISQISEYDPLDLFSGSKDRIHKAIKALYSTPQNSLQVFLNGSLVFGGFRGGICKTTSKLELAFEHTLKDFFKTEDDCGLRANAFIELVAETVYASGALDQLLEVQKLDKYNIEGAIHAYYDLVDQPCKACQELESSKLSNQFGSMHSLPQDEKVNILKDFLISSTAIDCSVMISFRPIETGLSRSSSHGNIQLESTKQEFEYKIHFIDLDMRPLKRMEAYHESDKKITKTYQEMLKKKKGDQPRRF”, the protein production result was “failed”.

As to “MIYDFCVIGGGIVGLATAMRLLEVYPGCSLVLMEKELSLAQHQTGHNSGVIHAGVYYAPGSFKAKLCARGAELTKSFCTEHSIPYEVCGKLVVASNKDSLARLGSLEERAKQNGLATERLDALELRRREPNVAGEGALFVKSSGIVDYGVVSNSMANVIIQSGGQILLGQTVVSIEEHGNHVNIASEGSSLSAKKLVVCAGLQSDRLATLAGLKLDCQIVPFRGEYYRLSSHLDYSVKHLIYPVPEVGLPFLGIHITRMINGGVTVGPN”, the protein production entry was “failed”.

For “MIYDLHSHSTASDGMLTPTELILRAVEQKVDVLALTDHDTLAGIQEAKIAAESQPIQLISGVEISALWQNKNIHLTALDIDEHHPALIELLQHHAVLREQRAVEIGEKLAKAGIPNAYHGAKMLANGEVTRAHYARFLVQQDYVRNIEHAFKKYLGTGKIAYVKPQWSSISHVIDVTHQAGGVICLAHPLRYKMTARWLRALIEHFKQAGGDGIEVASCGQRPDQRQLIARWASEFDLYASVGSDFHYPTGWIELGKSLTLPTTCKPIWQLFTTQ”, the protein production result was “failed”.
